This is an account of results in PMC7586906, “Development and characterization of specific anti‐Usutu virus chicken‐derived single chain variable fragment antibodies” (Protein Science : A Publication of the Protein Society, 2020).

For assay [1], the target named is T1, USUV strain Vienna-2001 whole virus (E protein on virions) (Usutu virus Vienna-2001, UniProt Q5WPU5, strain).
T1 construct: envelope (E) protein of Usutu virus strain Vienna-2001, cut from the polyprotein, as it stands on whole virions coated on the plate; The assay used whole virus; The other proteins of the virion are not written; also called USUV Vienna-2001; source: virus expanded in C6/36 cells, precipitated with 8% PEG8000, resuspended in NTE buffer
The assay is described as follows: ELISA; virus ELISA: PEG-precipitated USUV Vienna-2001 (8.1 × 10^6 pfu in 50 μl) coated on the plate, blocked with 5% BSA, scFv 2.5-20 μg/ml for 1 hr at 37°C, detected by HRP anti-His, 450 nm. Particulars: one partner purified. (In general: An ELISA detects its analyte on a solid surface through an enzyme-linked reagent.)

Assay [2] concerns the target T2, USUV E protein DIII group I (Usutu virus, sequence group I, strain).
T2 construct: 103 amino acids, 10.9 kDa; also called USUV I; USUV DIII group I
T2 chain: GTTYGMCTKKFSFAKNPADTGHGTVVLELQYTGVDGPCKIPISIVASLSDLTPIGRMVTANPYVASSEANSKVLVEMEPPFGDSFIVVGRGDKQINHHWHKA
The assay is described as follows: SPR; Biacore T200; scFv captured by its His-tag on a CM5 chip (His Capture Kit), E protein DIII as analyte in two-fold dilutions (31-2,000 nM; WNV also 100-32,000 nM), multi-cycle kinetics, 25°C, PBS with 0.05% Tween 20, 30 μl/min; 1:1 kinetic fit (legend of Figure 4), steady-state affinity model named for KD in the methods. To be noted: both partners purified. Background: SPR reads the build-up and loss of mass on a sensor chip optically.

Assay [3] addresses T3, USUV E protein DIII group B (Usutu virus, sequence group B, strain).
T3 construct: 103 amino acids, 11.0 kDa; also called USUV B; USUV DIII group B
T3 chain: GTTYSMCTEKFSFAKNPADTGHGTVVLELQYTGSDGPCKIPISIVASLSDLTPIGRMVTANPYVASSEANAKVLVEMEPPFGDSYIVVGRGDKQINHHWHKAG
The description is as above. Particulars: both partners purified.

Assay [4] deals with T4, soluble E (sE) protein of WNV strain NY-1999 (West Nile virus NY-1999 (NY99), UniProt Q9Q6P4, strain).
T4 construct: whole ectodomain of the envelope (E) protein of West Nile virus strain NY-1999 (NY99); also called sE of WNV; WNV NY99 sE; source: Drosophila S2 cells, provided by Prof; Karin Stiasny and Lena Roßbacher
Kind of assay: far-Western, overlay or dot blot; western blot at one amount: 0.5 μg of E protein DIII and 0.5 or 0.25 μg of sE per well on a 15% SDS gel, probed with 5 μg of scFv in 10 ml PBST, then mouse anti-HA and HRP goat anti-mouse. Particulars: both partners purified. Background: In western blotting, separated proteins are transferred to a membrane and probed.

Assay [5] addresses T5, soluble E (sE) protein of USUV strain Bologna-2009 (Usutu virus strain Bologna-2009, UniProt R4HE74, strain).
T5 construct: also called sE of USUV; USUV sE; source: Drosophila S2 cells, provided by Prof; Karin Stiasny and Lena Roßbacher
The assay is described as above. Particulars: both partners purified.

For the next assay, the target named is T6, WNV E protein DIII (West Nile virus NY99 (also called 2741), strain).
T6 construct: domain III of the envelope (E) protein of West Nile virus; 103 amino acids, 10.9 kDa; also called WNV DIII; WNV E protein DIII NY99 strain
T6 chain: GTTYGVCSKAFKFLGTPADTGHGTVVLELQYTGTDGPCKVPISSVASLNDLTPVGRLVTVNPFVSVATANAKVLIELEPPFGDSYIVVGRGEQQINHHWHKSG
Kind of assay: SPR; Biacore T200; scFv captured by its His-tag on a CM5 chip (His Capture Kit), E protein DIII as analyte in two-fold dilutions (31-2,000 nM; WNV also 100-32,000 nM), multi-cycle kinetics, 25°C, PBS with 0.05% Tween 20, 30 μl/min; 1:1 kinetic fit (legend of Figure 4), steady-state affinity model named for KD in the methods. Particulars: both partners purified.

For orientation: Kd means the constant that tells how readily two partners part at equilibrium. A lower Kd goes with a tighter complex. Broadly, the koff is a measure of how fast the partners let go of each other. Low values mean a long-lived complex, high ones a short-lived complex. Usually kon stands for the rate constant with which the complex forms. Low values mean slower complex formation, high ones faster complex formation.

Residue numbers refer to the chain shown, from its start. Several values for one entry are separate records, joined by “and”; a condition that tells them apart may be missing. Equal values may be shown once.

B1: scFv A8 (scFv, V domains shown)
VH: AVTLDESGGGLQTPGGGLSLVCKASGFTMSSYHMGWVRQAPGKGLEYVVGIDNTGRYTDYGAAVKGRATISRDNGQSTLRLQLNNLRAEDTGTYFCAKSAYLGRGCWDAELCAGEIDAWGHGTEVIVSS
VL: ALTQPSSVSANLGGTVKITCSGGYSGYGWYQQKSPGSAPVTLIYDNTKRPSDIPSRFSGSKSGSTGTLTITGVQAEDEAVYYCGSGDSRNYVGIFGAGTTLTVR
notes: chicken light chain variable region (V lambda) of A8, N-terminal part of the scFv; long linker between V lambda and VH; chicken heavy chain variable region (VH) of A8; From a chicken immune phage display library in pComb3XSS; source: E. coli TOP10, purified (IMAC, HisTrap FF); not shown: His6, C-terminal, kept; HA, C-terminal, kept
B1: in assay [1], the binding result was “binds”. In assay [2], this molecule came in with a Kd of 60 nM, a koff of 0.001 s⁻¹ and a kon of 19800 M⁻¹ s⁻¹. In assay [3], this molecule came in with a Kd of 100 nM, a koff of 0.002 s⁻¹ and a kon of 20000 M⁻¹ s⁻¹.

B2: scFv A12 (scFv, V domains shown)
VH: B1 VH with G17A, M29F, V49A, D108G, A118T
VL: ALTQPSSVSANPGETVQITCSGSSNKYGNNYGWYQQKSPGSAPVTVIYDDDKRPSDIPPRFSGSKSGSTNTLTITGVQADDEAVYFCGAYDNSDSGIFGAGTALTVL
notes: chicken light chain variable region (V lambda) of A12, N-terminal part of the scFv; long linker between V lambda and VH; chicken heavy chain variable region (VH) of A12; From a chicken immune phage display library in pComb3XSS; source: E. coli TOP10, purified (IMAC, HisTrap FF); not shown: His6, C-terminal, kept; HA, C-terminal, kept
As for B2, in assay [1], the binding result is “binds”. Further, in assay [2], the Kd was 140 nM and 130 nM; the koff is 0.007 s⁻¹ and 0.006 s⁻¹; the association rate constant (kon) is 48600 M⁻¹ s⁻¹ and 46600 M⁻¹ s⁻¹. Further, in assay [3], the Kd is 300 nM and 290 nM; the koff is 0.012 s⁻¹ and 0.01 s⁻¹; the kon is 39600 M⁻¹ s⁻¹ and 34200 M⁻¹ s⁻¹.

B3: scFv A9 (scFv, V domains shown)
VH: AVTLDESGGGLQTPGGTLSLVCKASGFTFSSVNMFWVRQAPGKGLEYVASISNTGSSTNYGAAVKGRATISRDNGQSTVRLQLNNLRAEDTATYFCAKDAYGYSFTVTPGYTIDAWGHGTEVIVSS
VL: ALTQPSSVSANLGGTVKITCSGGGGSYGWYQQKSPGSAPVTVIYENTKRPSNIPSRFSGSKSGSTSTLTITGVQAEDEAVYYCGSTDNNNIFGAGTTLTVL
notes: chicken light chain variable region (V lambda) of A9, N-terminal part of the scFv; long linker between V lambda and VH; chicken heavy chain variable region (VH) of A9; From a chicken immune phage display library in pComb3XSS; also called cross-reactive scFv; source: E. coli TOP10, purified (IMAC, HisTrap FF); not shown: His6, C-terminal, kept; HA, C-terminal, kept
Consider B3, for which the binding result in assay [4], in assay [5] and in assay [1] was “binds” in each case. For the same molecule, the Kd in assay [2] was 290 nM and 300 nM; in assay [3] it was 410 nM and 360 nM; with WNV E protein DIII, 100 nM. The koff in assay [2] is 0.05 s⁻¹ and 0.048 s⁻¹; in assay [3], 0.062 s⁻¹ and 0.059 s⁻¹; with WNV E protein DIII, 0.105 s⁻¹ and 0.094 s⁻¹. Moreover, the kon in assay [2] is 170000 M⁻¹ s⁻¹ and 168000 M⁻¹ s⁻¹; in assay [3] it was 152000 M⁻¹ s⁻¹ and 166000 M⁻¹ s⁻¹; with WNV E protein DIII it was 1.04e+06 M⁻¹ s⁻¹ and 970000 M⁻¹ s⁻¹.

B4: scFv G1 (scFv, V domains shown)
VH: AVTLDESGGGLQTPGGGLSLVCKASGFDFSRYGMNWVRQAPGKGLEWVAGISPDGSGTWYATAVKGRATISRDNGQSTVRLQLNNLRAEDTATYYCTRGNGDSFDAWGHGTEVIVSS
VL: ALTQPSSVSANLGGTVKITCSGGSYSYGWYQQKSPGSAPVTVIYYNDKRPSDIPSRFSGSKSGSTGTLTITGVQADDEAVYFCGGFDSSAGYVGIFGAGTTLTVL
notes: chicken light chain variable region (V lambda) of G1, N-terminal part of the scFv; long linker between V lambda and VH; From a chicken immune phage display library in pComb3XSS; Could not be held stably on the SPR chip; source: E. coli TOP10, purified (IMAC, HisTrap FF); not shown: His6, C-terminal, kept; HA, C-terminal, kept
For the molecule B4, the binding result in assay [5] and in assay [1] was “binds” throughout.

B5: scFv D2.2 (scFv, V domains shown)
VH: AVTLDESGGGLQTPGGALSLVCKGSGFTFSSHAMMWVRQAPGKGLEWVAGISRDGSTYYGAAVKGRATISRDDGQSTVRLQLNNLRAEDTGTYFCAKDVYGYCDTISGCEAGTIDAWGHGTEVIVSS
VL: B4 VL with G14E, G23S, Y25G, G85S, F86E, A90S, G91T, V93A
notes: chicken light chain variable region (V lambda) of D2.2, N-terminal part of the scFv; long linker between V lambda and VH; chicken heavy chain variable region (VH) of D2.2; From a chicken immune phage display library in pComb3XSS; source: E. coli TOP10, purified (IMAC, HisTrap FF); not shown: His6, C-terminal, kept; HA, C-terminal, kept
Consider B5, for which, in assay [1], the binding result is “binds”. In assay [3], the Kd is 230 nM and 250 nM; the koff was 0.074 s⁻¹ and 0.069 s⁻¹; the kon was 326000 M⁻¹ s⁻¹ and 273000 M⁻¹ s⁻¹.
